The text below walks through data of the supplement of paper PMC10065799, “High-throughput profiling of sequence recognition by tyrosine kinases and SH2 domains using bacterial peptide display” (eLife, 2023).

In one data set the target is Grb2 SH2 (UniProt P62993). Nature of the data set: SH2 binding enrichment of the phosphorylated peptide, bacterial display (enrichment ratio); higher = better substrate or ligand; peptides without Tyr show the background.
The target of a further data set is c-Src SH2. Described as above.
The target in a further data set is SHP2-C SH2. The description is as above.
The next data set relates to c-Src. Nature of the data set: phosphorylation enrichment, bacterial display (enrichment ratio); higher = better substrate or ligand; peptides without Tyr show the background.
For a further data set, the target named is MERTK (UniProt Q12866). The data set is described as above.
Sequence of MERTK (Q12866 whole entry, looked up): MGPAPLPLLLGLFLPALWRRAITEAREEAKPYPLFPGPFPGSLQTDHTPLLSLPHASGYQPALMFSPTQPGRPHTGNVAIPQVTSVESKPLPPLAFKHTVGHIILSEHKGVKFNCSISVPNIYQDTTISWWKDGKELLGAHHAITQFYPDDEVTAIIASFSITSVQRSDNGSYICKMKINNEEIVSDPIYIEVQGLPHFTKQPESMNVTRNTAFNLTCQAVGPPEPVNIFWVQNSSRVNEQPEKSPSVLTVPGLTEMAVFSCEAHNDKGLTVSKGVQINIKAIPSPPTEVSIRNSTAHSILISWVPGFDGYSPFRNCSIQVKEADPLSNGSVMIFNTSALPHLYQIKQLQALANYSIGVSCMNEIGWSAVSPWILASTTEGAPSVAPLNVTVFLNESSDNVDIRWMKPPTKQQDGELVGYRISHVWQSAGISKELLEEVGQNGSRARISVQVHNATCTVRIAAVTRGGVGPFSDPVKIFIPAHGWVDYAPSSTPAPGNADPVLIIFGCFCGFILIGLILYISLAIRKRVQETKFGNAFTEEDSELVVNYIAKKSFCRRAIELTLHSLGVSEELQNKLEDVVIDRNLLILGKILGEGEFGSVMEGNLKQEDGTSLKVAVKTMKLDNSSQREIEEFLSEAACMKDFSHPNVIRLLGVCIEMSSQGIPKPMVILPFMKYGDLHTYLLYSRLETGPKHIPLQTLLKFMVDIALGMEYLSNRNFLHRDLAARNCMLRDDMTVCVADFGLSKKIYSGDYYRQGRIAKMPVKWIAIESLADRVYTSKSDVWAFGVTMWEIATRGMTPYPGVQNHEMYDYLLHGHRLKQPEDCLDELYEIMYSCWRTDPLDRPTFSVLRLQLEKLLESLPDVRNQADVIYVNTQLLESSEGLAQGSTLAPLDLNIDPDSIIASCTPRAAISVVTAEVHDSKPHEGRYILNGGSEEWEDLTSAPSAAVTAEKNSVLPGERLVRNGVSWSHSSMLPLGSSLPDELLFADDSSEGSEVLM
Another data set concerns the target Jak2 (UniProt O60674). Described as above.
A further data set has as its target Fes (UniProt P07332). The description is as above.
In another data set the test system is c-Abl (mouse). The description is as above.
The target in a further data set is Fyn (UniProt P06241). The description is as above.
Sequence of Fyn (P06241 whole entry, looked up): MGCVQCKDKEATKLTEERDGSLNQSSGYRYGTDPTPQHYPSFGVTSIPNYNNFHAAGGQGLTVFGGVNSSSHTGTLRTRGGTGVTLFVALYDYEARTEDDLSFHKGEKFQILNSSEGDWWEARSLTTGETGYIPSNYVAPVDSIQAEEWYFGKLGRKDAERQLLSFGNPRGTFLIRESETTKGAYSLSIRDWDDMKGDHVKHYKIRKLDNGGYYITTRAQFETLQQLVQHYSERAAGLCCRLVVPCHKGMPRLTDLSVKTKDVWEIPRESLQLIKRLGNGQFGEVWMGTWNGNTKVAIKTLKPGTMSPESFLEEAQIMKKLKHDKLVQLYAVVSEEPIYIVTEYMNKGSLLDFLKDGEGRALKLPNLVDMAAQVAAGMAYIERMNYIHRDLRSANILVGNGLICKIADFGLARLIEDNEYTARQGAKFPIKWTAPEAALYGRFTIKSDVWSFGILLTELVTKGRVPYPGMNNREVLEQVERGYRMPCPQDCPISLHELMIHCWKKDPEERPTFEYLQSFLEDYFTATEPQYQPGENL
A further data set concerns the target Hck (UniProt P08631). The data set is described as above.
A further data set deals with EPHB2 (UniProt P29323). The description is as above.
The target of another data set is EPHB1 (UniProt P54762). The description is as above.
Sequence of EPHB1 (P54762 whole entry, looked up): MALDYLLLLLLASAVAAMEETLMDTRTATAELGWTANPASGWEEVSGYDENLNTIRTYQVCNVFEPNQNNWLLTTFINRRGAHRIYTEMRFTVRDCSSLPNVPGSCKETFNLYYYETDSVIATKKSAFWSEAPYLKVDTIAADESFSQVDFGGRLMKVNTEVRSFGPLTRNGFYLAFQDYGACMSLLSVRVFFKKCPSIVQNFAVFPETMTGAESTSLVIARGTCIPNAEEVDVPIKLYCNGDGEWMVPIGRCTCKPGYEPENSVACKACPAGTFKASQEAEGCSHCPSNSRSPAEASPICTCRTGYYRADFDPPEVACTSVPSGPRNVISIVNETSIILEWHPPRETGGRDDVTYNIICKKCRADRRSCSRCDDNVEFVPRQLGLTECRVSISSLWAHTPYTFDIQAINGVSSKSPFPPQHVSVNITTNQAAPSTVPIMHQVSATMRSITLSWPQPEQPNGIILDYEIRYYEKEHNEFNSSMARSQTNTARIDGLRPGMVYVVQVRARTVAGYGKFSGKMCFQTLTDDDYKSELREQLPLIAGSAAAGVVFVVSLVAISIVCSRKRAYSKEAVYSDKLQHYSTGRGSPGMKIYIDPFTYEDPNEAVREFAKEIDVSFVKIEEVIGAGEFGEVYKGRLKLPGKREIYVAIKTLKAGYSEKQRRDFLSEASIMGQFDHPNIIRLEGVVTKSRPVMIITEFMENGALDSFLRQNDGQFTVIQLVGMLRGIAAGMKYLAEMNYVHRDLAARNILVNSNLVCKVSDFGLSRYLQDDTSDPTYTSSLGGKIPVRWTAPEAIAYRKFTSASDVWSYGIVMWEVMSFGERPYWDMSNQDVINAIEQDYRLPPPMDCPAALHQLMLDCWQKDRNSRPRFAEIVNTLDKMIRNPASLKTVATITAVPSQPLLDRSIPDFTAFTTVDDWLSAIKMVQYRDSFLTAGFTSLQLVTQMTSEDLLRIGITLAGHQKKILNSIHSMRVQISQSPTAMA
The target of a further data set is FGFR1 (UniProt P11362). The data set is described as above.
In a further data set the target is FGFR3 (UniProt P22607). The description is as above.
Sequence of FGFR3 (P22607 whole entry, looked up): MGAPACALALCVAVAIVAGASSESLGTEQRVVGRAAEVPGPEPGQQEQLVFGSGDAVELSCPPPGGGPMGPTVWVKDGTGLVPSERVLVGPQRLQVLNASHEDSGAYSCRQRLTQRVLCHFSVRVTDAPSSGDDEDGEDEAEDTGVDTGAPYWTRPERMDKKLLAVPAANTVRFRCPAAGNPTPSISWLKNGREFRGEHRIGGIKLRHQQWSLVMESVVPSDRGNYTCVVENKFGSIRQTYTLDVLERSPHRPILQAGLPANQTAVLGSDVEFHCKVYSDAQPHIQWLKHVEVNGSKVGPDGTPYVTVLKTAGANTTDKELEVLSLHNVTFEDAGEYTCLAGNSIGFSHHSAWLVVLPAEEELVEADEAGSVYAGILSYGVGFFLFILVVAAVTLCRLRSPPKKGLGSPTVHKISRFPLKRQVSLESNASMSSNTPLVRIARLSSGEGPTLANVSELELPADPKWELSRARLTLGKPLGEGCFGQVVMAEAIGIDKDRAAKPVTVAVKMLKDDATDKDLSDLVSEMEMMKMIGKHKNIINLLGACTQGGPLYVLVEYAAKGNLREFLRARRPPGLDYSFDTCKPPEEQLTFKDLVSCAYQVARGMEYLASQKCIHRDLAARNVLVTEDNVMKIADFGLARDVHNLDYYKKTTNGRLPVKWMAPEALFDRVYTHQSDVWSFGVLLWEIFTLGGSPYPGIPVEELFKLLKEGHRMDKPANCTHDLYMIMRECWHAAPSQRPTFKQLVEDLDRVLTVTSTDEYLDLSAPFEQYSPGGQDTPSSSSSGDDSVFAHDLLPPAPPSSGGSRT
The next data set deals with Fer (mouse). The description is as above.
The subject of a further data set is AncSZ. The description is as above.
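For SH2 binding enrichment of the phosphorylated peptide, bacterial display in this document: peptide library displayed on the E. coli surface as eCPX fusions, selected cells deep-sequenced, score is each peptide's frequency after selection divided by its frequency in the input.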
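For phosphorylation enrichment, bacterial display in this document: 11-residue human phosphosite peptides and single-mutation variants displayed on the E. coli surface, counted by deep sequencing, each peptide's frequency after selection divided by its frequency in the unselected input library; frequency after pTyr selection over input frequency; kinase dosed for 20-30% of maximal phosphorylation in three min.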

Sequence of Hck (P08631 whole entry, looked up): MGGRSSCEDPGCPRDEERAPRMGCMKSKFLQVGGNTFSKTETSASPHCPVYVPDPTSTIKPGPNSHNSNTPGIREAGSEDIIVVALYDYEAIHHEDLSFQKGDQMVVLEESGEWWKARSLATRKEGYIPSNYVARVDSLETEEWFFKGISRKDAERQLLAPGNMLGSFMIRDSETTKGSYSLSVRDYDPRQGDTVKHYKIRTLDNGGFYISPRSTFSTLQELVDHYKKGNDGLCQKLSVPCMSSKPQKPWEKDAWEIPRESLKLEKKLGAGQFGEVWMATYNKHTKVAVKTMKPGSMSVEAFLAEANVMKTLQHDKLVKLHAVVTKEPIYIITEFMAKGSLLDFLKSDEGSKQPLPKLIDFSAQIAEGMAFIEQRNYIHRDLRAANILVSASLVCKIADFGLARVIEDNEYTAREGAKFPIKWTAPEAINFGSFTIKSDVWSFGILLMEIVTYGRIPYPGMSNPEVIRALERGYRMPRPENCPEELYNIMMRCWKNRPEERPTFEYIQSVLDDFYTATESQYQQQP
Sequence of Jak2 (O60674 whole entry, looked up): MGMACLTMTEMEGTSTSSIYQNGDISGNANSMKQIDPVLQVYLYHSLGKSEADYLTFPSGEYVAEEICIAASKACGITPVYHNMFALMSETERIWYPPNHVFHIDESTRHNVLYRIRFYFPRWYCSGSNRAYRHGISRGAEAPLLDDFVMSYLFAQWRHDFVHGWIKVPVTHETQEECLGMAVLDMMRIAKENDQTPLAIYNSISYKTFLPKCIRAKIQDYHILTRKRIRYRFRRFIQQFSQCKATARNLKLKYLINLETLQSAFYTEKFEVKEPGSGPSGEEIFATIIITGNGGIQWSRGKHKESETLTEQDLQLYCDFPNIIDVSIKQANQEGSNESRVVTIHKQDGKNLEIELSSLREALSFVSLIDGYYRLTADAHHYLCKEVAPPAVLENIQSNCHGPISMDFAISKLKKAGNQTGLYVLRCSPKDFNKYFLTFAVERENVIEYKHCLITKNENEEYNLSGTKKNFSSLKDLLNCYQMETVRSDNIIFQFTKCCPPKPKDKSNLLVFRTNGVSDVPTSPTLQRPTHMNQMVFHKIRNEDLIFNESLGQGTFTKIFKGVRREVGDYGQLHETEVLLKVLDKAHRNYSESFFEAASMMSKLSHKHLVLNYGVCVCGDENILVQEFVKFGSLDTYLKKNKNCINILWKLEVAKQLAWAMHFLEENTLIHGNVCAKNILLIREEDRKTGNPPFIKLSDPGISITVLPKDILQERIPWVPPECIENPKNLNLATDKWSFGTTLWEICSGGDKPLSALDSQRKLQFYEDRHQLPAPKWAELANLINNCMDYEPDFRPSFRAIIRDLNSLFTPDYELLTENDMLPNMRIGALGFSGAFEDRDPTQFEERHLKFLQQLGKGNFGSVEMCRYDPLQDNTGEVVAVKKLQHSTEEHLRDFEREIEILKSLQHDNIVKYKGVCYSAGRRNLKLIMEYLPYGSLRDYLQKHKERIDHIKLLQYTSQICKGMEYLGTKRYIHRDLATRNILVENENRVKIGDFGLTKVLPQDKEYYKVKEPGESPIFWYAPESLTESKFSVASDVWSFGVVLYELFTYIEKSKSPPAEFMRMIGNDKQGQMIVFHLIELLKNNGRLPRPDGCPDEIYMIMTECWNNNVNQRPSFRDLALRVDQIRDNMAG

For PTKNDYWAMLA [WWOX_Y287], the results for the SH2 binding enrichment in the data set with Grb2 SH2, with c-Src SH2 and in the data set with SHP2-C SH2 were 1.07, 0.721 and 0.617, respectively. The phosphorylation enrichment with c-Src was 0.912; in the data set with MERTK, 0.443; with Jak2 it was 1.12; with Fes, 1.5; in the data set with c-Abl (mouse), 0.939; in the data set with Fyn, 0.695. For the same sequence, the phosphorylation enrichment amounted to 0.705 with Hck; 1.61 in the data set with EPHB2; 1.78 in the data set with EPHB1; 7.82 in the data set with FGFR1; 4.3 in the data set with FGFR3; 0.447 with Fer (mouse). In addition, the phosphorylation enrichment in the data set on AncSZ was determined as 1.64.
In the case of PTTKTYFPHFA [HBA1_Y43_D48A], the results for the SH2 binding enrichment in the data set with Grb2 SH2, in the data set with c-Src SH2 and with SHP2-C SH2 were 0.714, 0.496 and 0.734, respectively. In addition, the phosphorylation enrichment in the data set with c-Src came to 0.781; in the data set with MERTK, 0.675; with Jak2, 0.469; in the data set with Fes, 0.724; in the data set with c-Abl (mouse), 0.646; in the data set with Fyn, 0.798. For the same sequence, the phosphorylation enrichment worked out at 0.754 with Hck; 0.386 with EPHB2; 0.572 with EPHB1; 0.313 with FGFR1; 0.599 in the data set with FGFR3; 0.384 in the data set on Fer (mouse). Besides, the phosphorylation enrichment in the data set with AncSZ worked out at 0.796.
On to PTYENYANSTQ [SLC12A3_Y70_H69N], for which the results for the SH2 binding enrichment in the data set with Grb2 SH2, with c-Src SH2 and with SHP2-C SH2 were 19.9, 2.96 and 0.728, respectively. Moreover, the phosphorylation enrichment came to 5.43 with c-Src; 0.927 in the data set with MERTK; 0.518 with Jak2; 0.743 in the data set with Fes; 0.418 in the data set with c-Abl (mouse); 4.03 with Fyn. Also, the phosphorylation enrichment with Hck is 2.12; with EPHB2, 3.36; with EPHB1 it was 4.39; in the data set with FGFR1 it was 0.593; with FGFR3, 0.555; in the data set with Fer (mouse), 0.69. Moreover, in the data set on AncSZ, the phosphorylation enrichment was 1.06.
Turning to PVADPYDQSFE [MAPK14_Y323], the SH2 binding enrichment with Grb2 SH2 turned out to be 0.927; in the data set with c-Src SH2, 0.971; in the data set with SHP2-C SH2, 0.797. Moreover, the phosphorylation enrichment amounted to 0.982 in the data set on c-Src; 0.894 in the data set with MERTK; 2.29 with Jak2; 1.86 in the data set with Fes; 2.38 in the data set with c-Abl (mouse); 0.828 with Fyn. For the same sequence, the phosphorylation enrichment in the data set with Hck turned out to be 0.989; with EPHB2, 0.632; with EPHB1 it was 0.695; in the data set with FGFR1 it was 0.941; with FGFR3 it was 0.896; in the data set with Fer (mouse) it was 0.759. Moreover, the phosphorylation enrichment in the data set with AncSZ came to 1.66.
On to PVDVAYRHGFF [PLEC_Y2967_R2969H_YF], for which the SH2 binding enrichment turned out to be 0.722 with Grb2 SH2, 0.552 in the data set with c-Src SH2 and 0.576 in the data set with SHP2-C SH2. The phosphorylation enrichment was determined as 0.325 with c-Src; 0.366 with MERTK; 0.511 in the data set with Jak2; 0.85 with Fes; 0.473 in the data set with c-Abl (mouse); 0.324 with Fyn. The phosphorylation enrichment in the data set with Hck worked out at 0.553; with EPHB2, 0.268; with EPHB1, 0.32; with FGFR1 it was 0.574; in the data set with FGFR3, 0.458; in the data set on Fer (mouse) it was 0.342. For the same sequence, the phosphorylation enrichment in the data set with AncSZ amounted to 0.482.
For the sequence QADIIYVNTQL [MERTK_Y872_V870I], the results for the SH2 binding enrichment with Grb2 SH2, with c-Src SH2 and with SHP2-C SH2 were 0.916, 0.475 and 0.543, respectively. Also, the phosphorylation enrichment in the data set on c-Src was 1.24; with MERTK it was 0.571; with Jak2, 1.05; with Fes it was 1.29; in the data set on c-Abl (mouse), 1.02; with Fyn it was 1.09. Moreover, the phosphorylation enrichment turned out to be 0.886 in the data set with Hck; 0.518 in the data set with EPHB2; 1.18 with EPHB1; 0.712 in the data set with FGFR1; 0.84 with FGFR3; 4.18 with Fer (mouse). In the data set with AncSZ, the phosphorylation enrichment stood at 1.28.
As to QDGYSYPSRQM [LDLR_Y847], the SH2 binding enrichment in the data set with Grb2 SH2 was 0.857; with c-Src SH2 it was 6.19; with SHP2-C SH2, 0.732. The phosphorylation enrichment with c-Src was 0.734; with MERTK, 0.983; with Jak2, 1.17; with Fes it was 1.21; in the data set with c-Abl (mouse), 0.663; in the data set with Fyn, 0.624. Further, the phosphorylation enrichment was 0.475 in the data set with Hck; 0.576 in the data set with EPHB2; 0.49 in the data set with EPHB1; 0.88 with FGFR1; 0.87 with FGFR3; 0.557 in the data set on Fer (mouse). In addition, in the data set with AncSZ, the phosphorylation enrichment was 1.98.
For QDRTFYERVRT [SPEN_Y633_S635R_YF], the SH2 binding enrichment with Grb2 SH2 is 0.603; with c-Src SH2, 2.36; with SHP2-C SH2, 4.46. Moreover, the phosphorylation enrichment amounted to 0.402 in the data set with c-Src; 0.539 in the data set with MERTK; 0.509 with Jak2; 0.591 with Fes; 0.582 in the data set with c-Abl (mouse); 0.403 with Fyn. The phosphorylation enrichment in the data set with Hck stood at 1.2; in the data set with EPHB2, 0.42; with EPHB1 it was 0.416; with FGFR1 it was 0.529; with FGFR3, 0.441; with Fer (mouse), 3.63. The phosphorylation enrichment in the data set on AncSZ amounted to 0.583.
